{"source": "IntAct's records for PubMed 16924104", "parents": {"B1": {"name": "Polyunsaturated fatty acid 5-lipoxygenase (Homo sapiens), P09917 (parent)", "chain": "MPSYTVTVATGSQWFAGTDDYIYLSLVGSAGCSEKHLLDKPFYNDFERGAVDSYDVTVDEELGEIQLVRIEKRKYWLNDDWYLKYITLKTPHGDYIEFPCYRWITGDVEVVLRDGRAKLARDDQIHILKQHRRKELETRQKQYRWMEWNPGFPLSIDAKCHKDLPRDIQFDSEKGVDFVLNYSKAMENLFINRFMHMFQSSWNDFADFEKIFVKISNTISERVMNHWQEDLMFGYQFLNGCNPVLIRRCTELPEKLPVTTEMVECSLERQLSLEQEVQQGNIFIVDFELLDGIDANKTDPCTLQFLAAPICLLYKNLANKIVPIAIQLNQIPGDENPIFLPSDAKYDWLLAKIWVRSSDFHVHQTITHLLRTHLVSEVFGIAMYRQLPAVHPIFKLLVAHVRFTIAINTKAREQLICECGLFDKANATGGGGHVQMVQRAMKDLTYASLCFPEAIKARGMESKEDIPYYFYRDDGLLVWEAIRTFTAEVVDIYYEGDQVVEEDPELQDFVNDVYVYGMRGRKSSGFPKSVKSREQLSEYLTVVIFTASAQHAAVNFGQYDWCSWIPNAPPTMRAPPPTAKGVVTIEQIVDTLPDRGRSCWHLGAVWALSQFQENELFLGMYPEEHFIEKPVKEAMARFRKNLEAIVSVIAERNKKKQLPYYYLSPDRIPNSVAI", "partner": "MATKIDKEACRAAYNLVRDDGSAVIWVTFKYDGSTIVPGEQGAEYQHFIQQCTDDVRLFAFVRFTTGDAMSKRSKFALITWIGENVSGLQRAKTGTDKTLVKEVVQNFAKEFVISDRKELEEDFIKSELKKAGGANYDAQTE"}}, "data": [{"variants_of": "B1", "details": "with cotl1_human COTL1, Q14019", "values": [{"variant": "W14A;W76A;W103A", "effect of a mutation on the interaction": "disrupting interaction strength"}]}]}
